Consider seven molecules from patent US20090061015.

Numbering of substitutions follows the chain as printed. Names may count otherwise.

The target in data set [1] is T1, recombinant human AceCS2^myc-His (residues 38-689, C-terminal myc-His tag, purified from E. coli), acetylated at Lys642 (UniProt Q9NUB1).
T1 sequence: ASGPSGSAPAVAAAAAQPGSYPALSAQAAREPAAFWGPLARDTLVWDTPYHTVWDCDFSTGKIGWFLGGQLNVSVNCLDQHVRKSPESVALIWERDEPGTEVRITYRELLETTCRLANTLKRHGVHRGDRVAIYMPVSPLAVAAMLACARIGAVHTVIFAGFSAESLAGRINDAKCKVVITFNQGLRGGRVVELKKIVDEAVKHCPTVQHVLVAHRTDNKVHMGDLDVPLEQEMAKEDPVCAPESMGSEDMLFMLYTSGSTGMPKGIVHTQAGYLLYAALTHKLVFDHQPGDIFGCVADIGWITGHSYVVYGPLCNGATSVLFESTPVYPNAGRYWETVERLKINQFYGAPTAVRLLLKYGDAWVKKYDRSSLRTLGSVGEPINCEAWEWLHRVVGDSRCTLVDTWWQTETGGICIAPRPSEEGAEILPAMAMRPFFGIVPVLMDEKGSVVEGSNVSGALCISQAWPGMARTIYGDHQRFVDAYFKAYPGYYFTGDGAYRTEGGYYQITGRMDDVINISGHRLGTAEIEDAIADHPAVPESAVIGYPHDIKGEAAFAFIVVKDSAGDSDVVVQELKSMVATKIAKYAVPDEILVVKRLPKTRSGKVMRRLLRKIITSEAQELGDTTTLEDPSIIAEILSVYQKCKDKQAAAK

The target of data set [2] is T2, recombinant human AceCS2^myc-His (residues 38-689, C-terminal myc-His tag, purified from E. coli), acetylated at Lys642, Q9NUB1.
T2 chain: T1 sequence

In the case of “recombinant human SIRT5 lacking the first 11 residues (residues 12-310, myc-His tagged)”, in data set [1], the “in vitro deacetylation of AceCS2 (immunoblot with acetyl-lysine-specific antibodies)” value is reported as “both recombinant SIRT5 proteins failed to do so”.
“recombinant human SIRT5 lacking the first 38 residues (residues 39-310, myc-His tagged)”: the “in vitro deacetylation of AceCS2 (immunoblot with acetyl-lysine-specific antibodies)” value in data set [1] is on record as “both recombinant SIRT5 proteins failed to do so”.

B1: recombinant human SIRT3 (residues 102-399, myc-His tagged, purified from E. coli) (protein)
chain: ISFSVGASSVVGSGGSSDKGKLSLQDVAELIRARACQRVVVMVGAGISTPSGIPDFRSPGSGLYSNLQQYDLPYPEAIFELPFFFHNPKPFFTLAKELYPGNYKPNVTHYFLRLLHDKGLLLRLYTQNIDGLERVSGIPASKLVEAHGTFASATCTVCQRPFPGEDIRADVMADRVPRCPVCTGVVKPDIVFFGEPLPQRFLLHVVDFPMADLLLILGTSLEVEPFASLTEAVRSSVPRLLINRDLVGPLAWHPRSRDVAQLGDVVHGVESLVELLGWTEEMRDLVQRETGKLDGPDK
As for B1, in data set [2], the “acetyl-CoA synthetase specific activity of AceCS2 after incubation with SIRT3” value is “deacetylation by SIRT3 was associated with a significant increase in enzymatic activity”; the “in vitro deacetylation of AceCS2 (immunoblot with acetyl-lysine-specific antibodies)” value is on record as “recombinant SIRT3 effectively deacetylated AceCS2”; the “in vitro deacetylation of hyperacetylated AceCS2 with NAD^+” value was “This treatment led to a complete deacetylation of AceCS2”; the “time course of AceCS2 deacetylation and of its enzymatic activity” value is “incubation of AceCS2 with SIRT3 and NAD^+ caused a progressive deacetylation of AceCS2 over time”.

B2: Flag-tagged SIRT3 (SIRT3^Flag, expressed in HEK293 or COS-1 cells) (protein)
chain: B1 chain
Turning to B2, the “in vitro deacetylation of AceCS2 (immunoblot with acetyl-lysine-specific antibodies)” value in data set [2] is listed as “immunoprecipitated Flag-tagged SIRT3 deacetylated AceCS2 in a NAD^+-dependent manner”.

B3: recombinant human SIRT3-H248Y (residues 102-399, myc-His tagged, purified from E. coli), catalytically inactive mutant (protein)
chain: B1 chain with H147Y
Turning to B3, in data set [2], the “in vitro deacetylation of AceCS2 (immunoblot with acetyl-lysine-specific antibodies)” value was “the catalytically inactive SIRT3-H248Y mutant did not deacetylate AceCS2, despite the presence of NAD^+”; the “in vitro deacetylation of hyperacetylated AceCS2 with NAD^+” value is “No deacetylation of AceCS2 was observed when NAD^+ was omitted from the reaction, or when a catalytically inactive SIRT3 mutant (H248Y) was used”; the “time course of AceCS2 deacetylation” value is “could not be observed with the inactive SIRT3-H248Y mutant”.

B4: Flag-tagged SIRT4 (protein)
chain: IGLFVPASPPLDPEKVKELQRFITLSKRLLVMTGAGISTESGIPDYRSEKVGLYARTDRRPIQHGDFVRSAPIRQRYWARNFVGWPQFSSHQPNPAHWALSTWEKLGKLYWLVTQNVDALHTKAGSRRLTELHGCMDRVLCLDCGEQTPRGVLQERFQVLNPTWSAEAHGLAPDGDVFLSEEQVRSFQVPTCVQCGGHLKPDVVFFGDTVNPDKVDFVHKRVKEADSLLVVGSSLQVYSGYRFILTAWEKKLPIAILNIGPTRSDDLACLKLNSRCGELLPLIDPC
B4: in data set [2], the “in vitro deacetylation of AceCS2” value is recorded as “did not deacetylate AceCS2 (data not shown)”.

B5: Flag-tagged SIRT5 (SIRT5^Flag, expressed in HEK293 or COS-1 cells) (protein)
chain: SSSMADFRKFFAKAKHIVIISGAGVSAESGVPTFRGAGGYWRKWQAQDLATPLAFAHNPSRVWEFYHYRREVMGSKEPNAGHRAIAECETRLGKQGRRVVVITQNIDELHRKAGTKNLLEIHGSLFKTRCTSCGVVAENYKSPICPALSGKGAPEPGTQDASIPVEKLPRCEEAGCGGLLRPHVVWFGENLDPAILEEVDRELAHCDLCLVVGTSSVVYPAAMFAPQVAARGVPVAEFNTETTPATNRFRFHFQGPCGTTLPEALACHENETVS
Take B5: in data set [2], the “in vitro deacetylation of AceCS2 (immunoblot with acetyl-lysine-specific antibodies)” value is recorded as “it failed to deacetylate AceCS2”.
